± gives the standard deviation of the averaged measurements.
B1: library; a variant is named by its letters at N, in order (parent)
chain: GCUGUCACCGAGAAACUGUGAAGUAUAUCUUAAACCUGGGCACUUAAAAGAUAUAUGGAGUUAGUAGUGCAACCUGCUCGGUCUGAUGAGUCCNNNNNNGGACGAAACAGC

Legend:
[1] = variants of: B1; assay: normalized RNA/DNA level without ligand (relative to sTRSVctl = 100) (log10 (% of sTRSVctl)); HEK293T; ligand: cyclic di-GMP (c-di-GMP-II aptamer); higher = less ribozyme self-cleavage, higher mRNA level; conditions: reporter: mCherry (pCS4076), ligand present: no
How it was run: (§1)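 Total RNA, extracted with EDTA 72 h after HEK293T cells were transfected with 4 µg per 6-well well of reporter-linked ribozyme switch library plasmids, was reverse-transcribed, amplified, barcoded and sequenced. Ligand, if used, was added 1 h before transfection. RNA level was derived from RNA reads divided by DNA reads and normalized to a spiked-in non-cleaving sequence or to the top sequences. This was multiplied by 100 and log10-transformed, with the top set of 25 sequences and a ≥100 DNA read minimum.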

[2] = variants of: B1; assay: normalized RNA/DNA level with ligand (relative to sTRSVctl = 100) (log10 (% of sTRSVctl)); HEK293T; ligand: cyclic di-GMP (c-di-GMP-II aptamer); ligand concentration (+) RNA-Seq: 1 mM; higher = less ribozyme self-cleavage, higher mRNA level; conditions: reporter: mCherry (pCS4076), ligand present: yes
How it was run: as §1

Variant | normalized RNA/DNA level without ligand (log10) [1] | normalized RNA/DNA level with ligand (log10) [2]
UUCUGC | 1.784 ± 0.003 | 1.92 ± 0.08
GUUAAA | 1.51 ± 0.079 | 1.7 ± 0.12
AAUGGU | 1.62 ± 0.048 | 1.76 ± 0.1
AGUACC | 1.66 ± 0.018 | 1.86 ± 0.15
UAGAGU | 1.56 ± 0.066 | 1.73 ± 0.067
CACUAG | 1.759 ± 0.017 | 1.88 ± 0.14
CAACCC | 1.719 ± 0.015 | 1.82 ± 0.12
UGUUCA | 1.71 ± 0.066 | 1.81 ± 0.12
CGCACU | 1.48 ± 0.12 | 1.71 ± 0.058
UAUAAC | 1.697 ± 0.015 | 1.85 ± 0.12
CUCAUG | 1.68 ± 0.031 | 1.82 ± 0.14
ACUCUA | 1.6 ± 0.046 | 1.77 ± 0.081
UGGAGU | 1.59 ± 0.1 | 1.76 ± 0.11
UUAGCC | 1.76 ± 0.082 | 1.83 ± 0.13
CUAUCG | 1.79 ± 0.047 | 1.88 ± 0.12
CGCCCG | 1.756 ± 0.0093 | 1.87 ± 0.14
CUCAAG | 1.67 ± 0.022 | 1.84 ± 0.033
CAUCUG | 1.76 ± 0.073 | 1.88 ± 0.13
UGCGCA | 1.711 ± 0.014 | 1.86 ± 0.061
UGGAAA | 1.626 ± 0.0078 | 1.83 ± 0.059
GAUUAG | 1.68 ± 0.046 | 1.8 ± 0.089
GACUCC | 1.77 ± 0.0029 | 1.89 ± 0.079
UGAGCG | 1.8 ± 0.12 | 1.86 ± 0.16

Variant | normalized RNA/DNA level without ligand (log10) [1] | normalized RNA/DNA level with ligand (log10) [2]
UGAGCA | 1.84 ± 0.073 | 1.91 ± 0.11
CCAGCC | 1.762 ± 0.0075 | 1.86 ± 0.13
GUCCCU | 1.77 ± 0.024 | 1.92 ± 0.091
AAGGAU | 1.49 ± 0.097 | 1.7 ± 0.096
UAACCA | 1.74 ± 0.036 | 1.86 ± 0.13
UAACCU | 1.71 ± 0.031 | 1.86 ± 0.072
UAACCG | 1.72 ± 0.12 | 1.81 ± 0.13
UACACU | 1.714 ± 0.014 | 1.84 ± 0.059
AACGAA | 1.38 ± 0.059 | 1.59 ± 0.16
GACGUC | 1.671 ± 0.014 | 1.87 ± 0.1
CGUCCA | 1.53 ± 0.11 | 1.72 ± 0.1
UUGUCA | 1.77 ± 0.045 | 1.9 ± 0.1
ACGUUG | 1.52 ± 0.083 | 1.74 ± 0.035
UACAAA | 1.65 ± 0.041 | 1.8 ± 0.057
CUCGCC | 1.784 ± 0.0038 | 1.86 ± 0.095
GUACCU | 1.73 ± 0.029 | 1.83 ± 0.13
UACGAC | 1.67 ± 0.017 | 1.82 ± 0.11
AUCAUA | 1.615 ± 0.0089 | 1.74 ± 0.075
AUUUGC | 1.76 ± 0.038 | 1.87 ± 0.12
GACGAC | 1.608 ± 0.0074 | 1.78 ± 0.13
ACUAUU | 1.5 ± 0.047 | 1.7 ± 0.11
GAAUUC | 1.8 ± 0.021 | 1.92 ± 0.09
GCGGUC | 1.29 ± 0.072 | 1.52 ± 0.09

Variant | normalized RNA/DNA level without ligand (log10) [1] | normalized RNA/DNA level with ligand (log10) [2]
GUCGUU | 1.61 ± 0.017 | 1.8 ± 0.14
AUCUCG | 1.76 ± 0.023 | 1.87 ± 0.15
UCUAGU | 1.66 ± 0.054 | 1.83 ± 0.057
AUUCGA | 1.58 ± 0.023 | 1.71 ± 0.066
ACUUAC | 1.7124 ± 0.0011 | 1.84 ± 0.096
UACCAG | 1.701 ± 0.003 | 1.83 ± 0.11
GUGAGC | 1.51 ± 0.086 | 1.77 ± 0.041
CACCGA | 1.6252 ± 0.00013 | 1.8 ± 0.1
GCCUAU | 1.662 ± 0.0027 | 1.85 ± 0.13
AAAUCC | 1.71 ± 0.049 | 1.83 ± 0.091
GCUUGG | 1.59 ± 0.023 | 1.8 ± 0.072
GAUUGU | 1.65 ± 0.037 | 1.82 ± 0.09
AUCAGG | 1.62 ± 0.072 | 1.77 ± 0.12
GAGGCU | 1.83 ± 0.046 | 1.87 ± 0.068
UUACAU | 1.677 ± 0.014 | 1.82 ± 0.1
UUACAA | 1.639 ± 0.0043 | 1.82 ± 0.07
CGUGCU | 1.64 ± 0.05 | 1.81 ± 0.063
GUUGUA | 1.57 ± 0.024 | 1.77 ± 0.1
CCGUCU | 1.6 ± 0.061 | 1.78 ± 0.12
CCGUCG | 1.68 ± 0.0046 | 1.82 ± 0.13
AGAGAU | 1.661 ± 0.0087 | 1.79 ± 0.11
CUAUAC | 1.696 ± 0.016 | 1.83 ± 0.1
CUAAUC | 1.712 ± 0.014 | 1.81 ± 0.087

Variant | normalized RNA/DNA level without ligand (log10) [1] | normalized RNA/DNA level with ligand (log10) [2]
UCCGAU | 1.59 ± 0.041 | 1.79 ± 0.08
UUCGUU | 1.736 ± 0.0061 | 1.87 ± 0.14
UUGAUA | 1.49 ± 0.02 | 1.69 ± 0.17
UCAGCU | 1.671 ± 0.0017 | 1.82 ± 0.15
CAGCGC | 1.731 ± 0.013 | 1.87 ± 0.15
UUAAGU | 1.71 ± 0.02 | 1.82 ± 0.1
CUUGGU | 1.76 ± 0.031 | 1.84 ± 0.11
AACUCU | 1.73 ± 0.06 | 1.88 ± 0.12
UAAACG | 1.747 ± 0.0073 | 1.85 ± 0.068
UAAACU | 1.71 ± 0.061 | 1.85 ± 0.15
ACCUGG | 1.68 ± 0.081 | 1.88 ± 0.049
AUGCUU | 1.61 ± 0.025 | 1.8 ± 0.12
UUUACC | 1.75 ± 0.028 | 1.87 ± 0.058
CGGCCC | 1.937 ± 0.016 | 1.94 ± 0.061
GACAGG | 1.759 ± 0.0092 | 1.85 ± 0.037
AUGGCA | 1.61 ± 0.02 | 1.75 ± 0.046
AACGCA | 1.67 ± 0.024 | 1.83 ± 0.076
UGCUCU | 1.77 ± 0.018 | 1.92 ± 0.05
CAGGCG | 1.75 ± 0.091 | 1.88 ± 0.13
GGCUAG | 1.5161 ± 0.00019 | 1.683 ± 0.0052
CCACGC | 1.66 ± 0.022 | 1.83 ± 0.12
CCACGG | 1.79 ± 0.058 | 1.89 ± 0.037
CACAGG | 1.68 ± 0.029 | 1.804 ± 0.0089

Variant | normalized RNA/DNA level without ligand (log10) [1] | normalized RNA/DNA level with ligand (log10) [2]
GACGGG | 1.76 ± 0.027 | 1.85 ± 0.062
AGGCUC | 1.78 ± 0.034 | 1.87 ± 0.087
GAAGCU | 1.715 ± 0.017 | 1.83 ± 0.11
AACUUU | 1.737 ± 0.004 | 1.85 ± 0.09
GCCAUC | 1.564 ± 0.0079 | 1.77 ± 0.074
AUUGUU | 1.59 ± 0.025 | 1.77 ± 0.12
GUAAUC | 1.35 ± 0.22 | 1.56 ± 0.12
ACCGGA | 1.51 ± 0.13 | 1.71 ± 0.056
UAAUUA | 1.7 ± 0.018 | 1.85 ± 0.062
GAAUCG | 1.67 ± 0.041 | 1.8 ± 0.096
CGAGAG | 1.72 ± 0.022 | 1.84 ± 0.033
UAAGCA | 1.75 ± 0.018 | 1.87 ± 0.082
UGCUGA | 1.6 ± 0.017 | 1.8 ± 0.085
CGGGCG | 1.83 ± 0.066 | 1.94 ± 0.092
GCCUGA | 1.6 ± 0.036 | 1.77 ± 0.069
ACCGUG | 1.57 ± 0.096 | 1.77 ± 0.097
UCUAAC | 1.6887 ± 0.0016 | 1.83 ± 0.13
CCGUGC | 1.58 ± 0.036 | 1.76 ± 0.086
GGUUCU | 1.66 ± 0.044 | 1.77 ± 0.083
UAUUGA | 1.6713 ± 0.00062 | 1.83 ± 0.1
ACAAAG | 1.4 ± 0.073 | 1.6 ± 0.06
CGCGGG | 1.67 ± 0.1 | 1.87 ± 0.047
CGCGGA | 1.446 ± 0.0059 | 1.62 ± 0.089

Reference: the supplement of paper PMC6757056
